According to paper doi:10.1101/854158 (bioRxiv, 2019):

Experiments:
Experiment in all cases: cryo-EM structure
FANCI = target: T1, FANCI (human, UniProt Q9NVI1 1-1328)
T1 sequence: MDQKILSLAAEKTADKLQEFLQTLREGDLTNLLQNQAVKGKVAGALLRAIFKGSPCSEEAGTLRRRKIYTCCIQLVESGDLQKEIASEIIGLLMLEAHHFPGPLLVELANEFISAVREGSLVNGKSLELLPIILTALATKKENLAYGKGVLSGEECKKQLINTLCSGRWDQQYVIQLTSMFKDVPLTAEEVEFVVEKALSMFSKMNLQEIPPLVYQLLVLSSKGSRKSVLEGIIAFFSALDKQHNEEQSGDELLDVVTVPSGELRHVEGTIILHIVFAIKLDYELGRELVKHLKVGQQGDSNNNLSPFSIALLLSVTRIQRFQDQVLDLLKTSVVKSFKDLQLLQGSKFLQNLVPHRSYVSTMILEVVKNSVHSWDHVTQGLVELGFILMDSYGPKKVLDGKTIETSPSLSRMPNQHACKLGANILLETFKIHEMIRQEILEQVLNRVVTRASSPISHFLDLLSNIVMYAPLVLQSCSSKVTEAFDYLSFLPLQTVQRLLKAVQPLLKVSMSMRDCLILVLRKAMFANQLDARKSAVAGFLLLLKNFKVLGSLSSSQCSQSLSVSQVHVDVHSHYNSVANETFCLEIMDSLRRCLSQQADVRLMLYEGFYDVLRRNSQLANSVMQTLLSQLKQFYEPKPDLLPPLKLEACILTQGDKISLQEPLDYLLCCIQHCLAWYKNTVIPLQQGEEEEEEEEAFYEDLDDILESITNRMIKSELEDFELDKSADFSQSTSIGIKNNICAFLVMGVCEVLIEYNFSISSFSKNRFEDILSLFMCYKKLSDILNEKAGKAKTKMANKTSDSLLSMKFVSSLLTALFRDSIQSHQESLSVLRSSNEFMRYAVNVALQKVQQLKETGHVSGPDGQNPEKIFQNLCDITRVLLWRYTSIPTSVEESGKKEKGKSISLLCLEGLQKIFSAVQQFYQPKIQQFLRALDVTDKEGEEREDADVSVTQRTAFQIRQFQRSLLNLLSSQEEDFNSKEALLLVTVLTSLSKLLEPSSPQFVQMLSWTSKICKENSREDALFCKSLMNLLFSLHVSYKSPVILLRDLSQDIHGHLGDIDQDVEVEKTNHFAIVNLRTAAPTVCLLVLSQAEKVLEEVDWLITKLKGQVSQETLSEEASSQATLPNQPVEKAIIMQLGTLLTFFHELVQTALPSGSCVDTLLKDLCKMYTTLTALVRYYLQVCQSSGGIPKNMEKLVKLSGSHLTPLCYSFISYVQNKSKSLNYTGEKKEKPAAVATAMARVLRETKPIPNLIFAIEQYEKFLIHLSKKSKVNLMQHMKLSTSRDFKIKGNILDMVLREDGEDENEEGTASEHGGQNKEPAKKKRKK

FANCC = target: T2, FANCC (human, UniProt Q00597 1-558)
T2 sequence: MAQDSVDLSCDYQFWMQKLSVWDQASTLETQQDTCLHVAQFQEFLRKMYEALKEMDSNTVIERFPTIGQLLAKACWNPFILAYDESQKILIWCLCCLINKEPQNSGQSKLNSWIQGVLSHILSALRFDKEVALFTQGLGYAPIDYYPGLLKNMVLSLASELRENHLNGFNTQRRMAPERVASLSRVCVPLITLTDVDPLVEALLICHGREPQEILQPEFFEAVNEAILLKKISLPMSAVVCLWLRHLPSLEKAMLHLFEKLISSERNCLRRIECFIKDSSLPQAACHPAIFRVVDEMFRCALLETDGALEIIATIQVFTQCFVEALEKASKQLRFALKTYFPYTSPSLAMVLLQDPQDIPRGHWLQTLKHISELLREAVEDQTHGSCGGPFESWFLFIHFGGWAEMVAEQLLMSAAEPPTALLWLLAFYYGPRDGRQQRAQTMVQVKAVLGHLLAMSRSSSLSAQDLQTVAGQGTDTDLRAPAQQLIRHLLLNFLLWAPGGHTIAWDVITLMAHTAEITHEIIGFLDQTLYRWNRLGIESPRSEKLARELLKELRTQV

FANCE = target: T3, FANCE (human, UniProt Q9HB96 1-536)
T3 sequence: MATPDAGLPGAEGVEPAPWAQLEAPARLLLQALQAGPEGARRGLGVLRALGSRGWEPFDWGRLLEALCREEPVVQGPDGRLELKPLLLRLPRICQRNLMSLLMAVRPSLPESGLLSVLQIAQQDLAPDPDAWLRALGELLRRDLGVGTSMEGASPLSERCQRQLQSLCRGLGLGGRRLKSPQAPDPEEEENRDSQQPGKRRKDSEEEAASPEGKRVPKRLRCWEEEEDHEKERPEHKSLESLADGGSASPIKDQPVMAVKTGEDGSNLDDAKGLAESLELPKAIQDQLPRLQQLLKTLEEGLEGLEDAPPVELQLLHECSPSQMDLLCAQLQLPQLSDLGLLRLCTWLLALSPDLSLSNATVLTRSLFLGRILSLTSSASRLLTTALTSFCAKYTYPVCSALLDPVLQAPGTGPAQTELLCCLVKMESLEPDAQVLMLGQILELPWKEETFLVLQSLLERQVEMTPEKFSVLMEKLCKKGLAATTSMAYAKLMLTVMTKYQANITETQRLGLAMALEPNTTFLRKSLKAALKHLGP

binding result (FANCI): binds | binding result (FANCC): binds | binding result (FANCE): binds
B1: FANCL (enzyme)
chain: MAVTEASLLRQCPLLLPQNRSKTVYEGFISAQGRDFHLRIVLPEDLQLKNARLLCSWQLRTILSGYHRIVQQRMQHSPDLMSFMMELKMLLEVALKNRQELYALPPPPQFYSSLIEEIGTLGWDKLVYADTCFSTIKLKAEDASGREHLITLKLKAKYPAESPDYFVDFPVPFCASWTPQSSLISIYSQFLAAIESLKAFWDVMDEIDEKTWVLEPEKPPRSATARRIALGNNVSINIEVDPRHPTMLPECFFLGADHVVKPLGIKLSRNIHLWDPENSVLQNLKDVLEIDFPARAILEKSDFTMDCGICYAYQLDGTIPDQVCDNSQCGQPFHQICLYEWLRGLLTSRQSFNIIFGECPYCSKPITLKMSGRKH
